From publication PMC6300008 come the findings set out here.

This data set is described as follows: LDH release into supernatant, 24 h. The settings on record: glycan lost; control: WT-transfected BV2 cells plus LPS, co-cultured with neurons. For orientation: Release of lactate dehydrogenase indicates damage to the cell membrane.

B1: CD200R1 (CD200 receptor 1): N44Q (protein)
parent chain: MFCFWRTSALAVLLIWGVFVAGSSCTDKNQTTQNNSSSPLTQVNTTVSVQIGTKALLCCFSIPLTKAVLITWIIKLRGLPSCTIAYKVDTKTNETSCLGRNITWASTPDHSPELQISAVTLQHEGTYTCETVTPEGNFEKNYDLQVLVPPEVTYFPEKNRSAVCEAMAGKPAAQISWSPDGDCVTTSESHSNGTVTVRSTCHWEQNNVSDVSCIVSHLTGNQSLSIELSRGGNQSLRPYIPYIIPSIIILIIIGCICLLKISGFRKCKLPKLEATSAIEEDEMQPYASYTEKSNPLYDTVTKVEAFPVSQGEVNGTDCLTLSAIGI
In the case of B1, the “other: neuronal death in co-culture” value is listed as “increases”.
